The text below walks through data of patent US20260022175A1 (Chugai, published 2026).

The target of assay [1] is T1, mCTLA4-His (mouse CTLA4 extracellular region linked with a His-tag) (mouse, UniProt P09793 36-161). Description: SPR 37C, ATP 100 µM.
Assay [2] has as its target T1, mCTLA4-His (mouse CTLA4 extracellular …). In words: SPR 37C, ATP 100 µM. The source holds these as a separate data set.
For assay [3] the target is unchanged. Description: SPR 37C, ATP 10 µM.
For assay [4], the target named is T2, human CTLA4 (human).
T2 construct: also called hCTLA4; hCTLA4-His-BAP
Description: SPR, 37C, antibody captured by anti-mouse IgG, ATP 100 uM.

Assay [5] deals with T2, human CTLA4. Description: SPR, 37C, antibody captured by anti-mouse IgG, ATP 1 uM.
Assay [6] concerns the target T2, human CTLA4. In words: SPR, 37C, antibody captured by anti-mouse IgG, ATP 10 uM.
Assay [7] addresses T3, human FcγRIIIa V extracellular domain (human, UniProt P08637 17-208).
T3 construct: extracellular domain; also called hFcγR IIIa V
In words: SPR Biacore 8K+; KD of G1d divided by KD of this antibody.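 Also: antibodies captured on an anti-Fab-kappa streptavidin chip, soluble FcγR ectodomains flowed over, KD by steady-state fit for FcγRIIb and Langmuir kinetic model for the other receptors.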

For assay [8], the target named is T4, human FcγRIIa R extracellular domain (human, UniProt P12318 34-217).
T4 construct: extracellular domain; also called hFcγR IIa R
T4 sequence (looked up): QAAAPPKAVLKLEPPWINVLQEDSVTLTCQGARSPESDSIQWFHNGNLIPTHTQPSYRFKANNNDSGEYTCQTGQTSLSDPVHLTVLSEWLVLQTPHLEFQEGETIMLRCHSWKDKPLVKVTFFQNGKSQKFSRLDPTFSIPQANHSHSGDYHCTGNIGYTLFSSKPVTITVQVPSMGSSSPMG
Described as above.

In assay [9] the target is T5, human FcγRIIb extracellular domain (human, UniProt P31994 43-217).
T5 construct: extracellular domain; also called hFcγR IIb
T5 sequence (looked up): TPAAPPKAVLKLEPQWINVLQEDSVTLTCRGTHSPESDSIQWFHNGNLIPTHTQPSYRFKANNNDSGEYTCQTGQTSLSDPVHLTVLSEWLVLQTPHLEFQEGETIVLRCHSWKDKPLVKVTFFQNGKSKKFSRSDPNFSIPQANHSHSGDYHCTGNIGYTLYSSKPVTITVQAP
The assay is described as above.

Assay [10] has as its target T6, human FcγRIIIa F extracellular domain (human, UniProt P08637 17-208).
T6 construct: extracellular domain; also called hFcγR IIIa F
The assay is described as above.

For assay [11], the target named is T7, human FcγRIIa H extracellular domain (human, UniProt P12318 34-217).
T7 construct: extracellular domain; also called hFcγR IIa H
T7 sequence (looked up): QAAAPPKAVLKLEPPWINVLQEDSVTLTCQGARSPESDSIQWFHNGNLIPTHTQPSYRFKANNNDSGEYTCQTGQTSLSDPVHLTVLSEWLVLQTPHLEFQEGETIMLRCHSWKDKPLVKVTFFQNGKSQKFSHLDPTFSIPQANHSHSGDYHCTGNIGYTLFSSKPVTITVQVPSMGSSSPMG
The description is as above.

Assay [12] has as its target T8, human FcγRIa extracellular domain (human, UniProt P12314 16-292).
T8 construct: extracellular domain; also called hFcγR Ia; hFcγRIa
The assay is described as above.

Assay [13] deals with T3, human FcγRIIIa V extracellular domain. In words: SPR Biacore 8K+, antibody captured, FcγR as analyte, 1:1 Langmuir model; hFcγR IIIa V allotype.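 Also: antibodies captured on a streptavidin chip through a biotinylated anti-human Fab kappa reagent, with FcγR extracellular domains injected in pH 7.4 phosphate buffer at 25 °C.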
Assay [14] has the same target. Description: SPR Biacore 8K+; KD for FcγRIIb divided by KD for this FcγR.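 Also: antibodies captured on an anti-human Fab kappa SA chip with soluble human FcγR ectodomains flowed over, FcγRIIb KD from steady-state fit, other FcγR KD from Langmuir model.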
The target in assay [15] is T4, human FcγRIIa R extracellular domain. The description is as above.
For assay [16], the target named is T6, human FcγRIIIa F extracellular domain. Described as above.
Assay [17] deals with T7, human FcγRIIa H extracellular domain. The assay is described as above.
Assay [18] addresses hFcγRIIIaV on hFcγRIIIaV-expressing Jurkat cells (human, UniProt P08637 17-254). Description: cell-based or functional assay.
Assay [19] concerns the target T9, hFcγRIIaH on hFcγRIIaH-expressing Jurkat cells (human, UniProt P12318 34-317).
T9 sequence (looked up): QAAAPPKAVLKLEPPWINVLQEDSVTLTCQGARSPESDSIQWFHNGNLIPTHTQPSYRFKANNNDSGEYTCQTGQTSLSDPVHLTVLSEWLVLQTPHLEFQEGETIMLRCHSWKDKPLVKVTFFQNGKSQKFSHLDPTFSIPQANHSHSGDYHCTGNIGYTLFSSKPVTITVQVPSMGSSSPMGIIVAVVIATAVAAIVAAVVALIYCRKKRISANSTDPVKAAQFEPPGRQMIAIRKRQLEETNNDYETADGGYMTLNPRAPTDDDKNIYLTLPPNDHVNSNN
Description: cell-based or functional assay.

In assay [20] the target is T6, human FcγRIIIa F extracellular domain. In words: SPR Biacore 8K+, antibody captured, FcγR as analyte, 1:1 Langmuir model; hFcγR IIIa F allotype.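 Also: antibodies captured on a streptavidin chip through a biotinylated anti-human Fab kappa reagent, with FcγR extracellular domains injected in pH 7.4 phosphate buffer at 25 °C.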
Assay [21] concerns the target T4, human FcγRIIa R extracellular domain. Description: SPR Biacore 8K+, antibody captured, FcγR as analyte, 1:1 Langmuir model.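 Also: antibodies captured on a streptavidin chip through a biotinylated anti-human Fab kappa reagent, with FcγR extracellular domains injected in pH 7.4 phosphate buffer at 25 °C.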
Assay [22] concerns the target T7, human FcγRIIa H extracellular domain. Described as above.
Assay [23] has as its target T8, human FcγRIa extracellular domain. Described as above.
The target of assay [24] is T5, human FcγRIIb extracellular domain. Description: SPR Biacore 8K+, antibody captured, FcγR as analyte, steady state affinity model.

T2 sequence (chain, as listed by the source limits assumed): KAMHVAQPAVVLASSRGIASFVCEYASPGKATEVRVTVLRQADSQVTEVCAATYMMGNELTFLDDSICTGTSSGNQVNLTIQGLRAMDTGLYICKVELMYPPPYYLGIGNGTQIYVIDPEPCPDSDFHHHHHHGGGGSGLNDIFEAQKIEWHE
T6 sequence (P08637 17-208): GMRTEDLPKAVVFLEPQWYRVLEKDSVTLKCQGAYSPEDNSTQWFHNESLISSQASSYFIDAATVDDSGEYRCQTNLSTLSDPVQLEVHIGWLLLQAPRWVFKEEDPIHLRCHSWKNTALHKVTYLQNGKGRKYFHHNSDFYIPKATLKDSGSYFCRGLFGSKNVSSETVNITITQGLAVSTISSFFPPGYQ
T3 sequence (P08637 17-208 F176V limits assumed): as the sequence (P08637 17-208) above, with F160V counted along it
T8 sequence (P12314 16-292): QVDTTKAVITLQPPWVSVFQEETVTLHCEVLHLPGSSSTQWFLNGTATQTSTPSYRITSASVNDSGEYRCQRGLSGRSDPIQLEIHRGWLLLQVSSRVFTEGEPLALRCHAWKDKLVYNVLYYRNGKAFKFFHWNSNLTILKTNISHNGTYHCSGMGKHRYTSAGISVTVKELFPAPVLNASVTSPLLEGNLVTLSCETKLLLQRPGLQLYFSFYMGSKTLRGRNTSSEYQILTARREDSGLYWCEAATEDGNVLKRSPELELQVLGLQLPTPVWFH
Sequence of hFcγRIIIaV on hFcγRIIIaV-expressing Jurkat cells (P08637 17-254, form in doubt): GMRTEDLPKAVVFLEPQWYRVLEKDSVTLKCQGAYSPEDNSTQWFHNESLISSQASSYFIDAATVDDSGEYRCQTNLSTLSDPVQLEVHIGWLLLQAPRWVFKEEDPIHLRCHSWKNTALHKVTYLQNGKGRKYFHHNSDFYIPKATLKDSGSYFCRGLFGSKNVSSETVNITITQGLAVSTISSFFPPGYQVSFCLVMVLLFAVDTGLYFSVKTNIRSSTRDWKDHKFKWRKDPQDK

B1: 04H1208-G1m/04L1407-k0MT (antibody, human IgG1, kappa, V domains shown)
VH: EVQLVESGGGLVKPGGSLRLSCAASGFTFSSKTMNWVRQAPGKGLEWVSSISTRSGYIYYARSVKGRFTISRDNAKNSLYLQMNSLRAEDTAVYYCARYGKREDMLWVFDYWGQGTLVTVSS
VL: DIVMTQSPLSLPVTPGEPASISCDGPSTDVGDYNWVHWYQQKPGQAPRLLIYYTSSKPEGVPDRFSGSGSGTDFTLKISRVEAEDVGVYYCQTYAAPLGPTFGQGTKLEIKR
B1: the Kd in assay [1] came to 16 nM; in [3], 84 nM. Also, the “fold weaker than its binding ability to human CTLA4” value in assay [2] is roughly 2 times.

B2: 04H1389-mFa55/04L1305-mk1 (antibody, mouse IgG2a, kappa)
heavy: EVQLVESGGGLVKPGGSLRLSCAASGFTFSSKTMNWVRQAPGKGLEWVSSISTQSHYIYYAESVKGRFTISRDNAKNSLYLQMNSLRAEDTAVYYCARYGKREDMLWVFDYWGQGTLVTVSSAKTTAPSVYPLAPVCGDTTGSSVTLGCLVKGYFPEPVTLTWNSGSLSSGVHTFPAVLQSDLYTLSSSVTVTSSTWPSQSITCNVAHPASSTKVDKKIEPRGPTIKPCPPCKCPAPNLLGGPDVFIFPPKIKDVLMISLSPIVTCVVVDVSEDDPDVQISWFVNNVEVHTAQTQTHREDYNSTLRVVSALPIQHQDWMSGKEFKCKVNNKDLPAPIERTISKPKGSVRAPQVYVLPPPEEEMTKKQVTLTCMVTDFMPEDIYVEWTNNGKTELNYKNTEPVLDSDGSYFMYSKLRVEKKNWVERNSYSCSVVHEGLHNHHTTKSFSRTPGK
light: DIVMTQSPLSLPVTPGEPASISCDGPSTGVGDYNYVHWYQQKPGQAPRLLIYFTSKKPSGVPDRFSGSGSGTDFTLKISRVEAEDVGVYYCQTYAAPLGPMFGQGTKLEIKRADAAPTVSIFPPSSEQLTSGGASVVCFLNNFYPKDINVKWKIDGSERQNGVLNSWTDQDSKDSTYSMSSTLTLTKDEYERHNSYTCEATHKTSTSPIVKSFNRNEC
notes: Mouse constant regions mFa55 and mk1; also called SW1389-mFa55
Regarding B2, the results for the Kd in assay [4], in [5] and in assay [6] were 8.9 nM, 51 nM and 18 nM, respectively.

B3: H240-Kn037/L73-k0//H240-Hl036/L73-k0 (antibody, human IgG1, kappa)
heavy 1: QDQLVQSGAEVKKPGASVKVSCKASGFNIKDTYIQWVRQAPGQGLEWMGRIDPLRKQTKYREKFEGRVTITADTSTNTAYMELSSLRSEDTAVYYCVRSGREFDYWGQGTLVTVSSASTKGPSVFPLAPSSKSTSGGTAALGCLVKDYFPEPVTVSWNSGALTSGVHTFPAVLQSSGLYSLSSVVTVPSSSLGTQTYICNVNHKPSNTKVDKKVEPKSCDKTHTCPPCPAPELLAGPDVFLFPPKPKDTLMISRTPEVTCVVVDVSHEDPEVKFNWYVDGVEVHNAKTKPREEQYNSTYRVVSVLTVLHQDWLNGKEYKCKVSNKALPAPEEKTISKAKGQPREPQVCTLPPSRDELTKNQVSLWCLVKGFYPSDIAVEWESNGQPENNYKTTPPVLDSDGSFFLYSKLTVDKSRWQQGNVFSCSVMHEALHNHYTQKSLSLSP
heavy 2: QDQLVQSGAEVKKPGASVKVSCKASGFNIKDTYIQWVRQAPGQGLEWMGRIDPLRKQTKYREKFEGRVTITADTSTNTAYMELSSLRSEDTAVYYCVRSGREFDYWGQGTLVTVSSASTKGPSVFPLAPSSKSTSGGTAALGCLVKDYFPEPVTVSWNSGALTSGVHTFPAVLQSSGLYSLSSVVTVPSSSLGTQTYICNVNHKPSNTKVDKKVEPKSCDKTHTCPPCPAPELLAGPDVFLFPPKPKDTLMISRTPEVTCVVVDVSHEDPEVKFNWYVDGVEVHNAKTKPREEQYNSTYRVVSVLTVLHQDWLNGKEYKCKVSNKALPAPEEKTISKAKGQPREPQVYTLPPSRCELTKNQVSLSCAVKGFYPSDIAVEWESNGQPENNYKTTPPVLDSDGSFFLVSKLTVDKSRWQQGNVFSCSVMHEALHNHYTQKSLSLSP
light: DIQMTQSPSSLSASVGDRVTITCRASQDIHKYIAWYQQKPGQAPRLLIQYTSTLQPGVPSRFSGSGSGTDYTFTISSLQPEDIATYYCLQYEQLRTFGGGTKVEIKRTVAAPSVFIFPPSDEQLKSGTASVVCLLNNFYPREAKVQWKVDNALQSGNSQESVTEQDSKDSTYSLSSTLTLSKADYEKHKVYACEVTHQGLSSPVTKSFNRGEC
notes: also called EGL-GASDIE; GASDIE
As for B3, the “Relative value to KD between G1d and hFcgRs” value came out at 15.1 in assay [7]; 24.7 in assay [8]; 8 in assay [9]; 44.7 in assay [10]; 16.4 in assay [11]; 6.2 in assay [12]. The Kd in [13] was found to be 23.8 nM; in assay [20], 66.1 nM; in [21], 67 nM; in assay [22], 68.6 nM; in assay [23], 0.0145 nM; in assay [24], 1250 nM. For the same molecule, the “A/I ratio (KD for FcγRIIb divided by KD for each FcγR)” value in [14] amounted to 52.6; in assay [15], 18.6; in assay [16] it was 18.9; in [17], 18.2. In addition, in assay [18], the “EC50 value (hFcγRIIIaV ADCC Reporter Bioassay, Hepa1-6/hEREG target cells)” value worked out at 3.7 ng/mL. Further, in [19], the “EC50 value (hFcγRIIaH ADCP Reporter Bioassay, Hepa1-6/hEREG target cells)” value worked out at 14.9 ng/mL.
